Series [1] can be described thus: Monitoring DGC in blood serum by ex vivo NIR-II imaging. The note with it: NIR-II imaging and ICP-MS quantification of DGC in mouse serum after tail vein injection. On the set-up: species or system C57BL/6J mice. Here is the method: The C57BL/6J mice (male and female) were injected with DGC (20 mg/kg) through the tail vein (n = 3). After injection, the blood samples were collected at 0.083, 0.25, 0.5, 1, 2, 4, 8, 10, 12, 24, and 48 h through the posterior orbital vein of the mice. The serum was obtained by centrifugation (1200×g for 5 min) to remove blood cells. The serum samples were observed through the In vivo Master (Grand-imaging Technology) equipped with an InGaAs camera C-RED2 (Firstlight) (λ ex = 808 nm, 1000 nm longpass (LP) filter (Edmund Optics)) camera to obtain the NIR-II image (exposure time: 50 ms). ImageJ software was used to process and analyze the images obtained in the experiment, and the DGC content in the sample was evaluated according to the fluorescence intensity of the sample.

The nature of series [2]: Dynamic light scattering, hydrated particle size. The note with it: dynamic light scattering (Zetasizer Nano), aqueous. It counts as physicochemical. The source says:
The fluorescence spectrophotometer (Shimadzu RF-5301, Kyoto, Japan) and NIR spectrograph FLS1000 was used to acquire the fluorescence and NIR spectra of the as-synthesized DGC. The mean hydrated particle size and size distribution of DGC were further documented by a phase analysis light-scattering technique (Zetasizer Nano, Malvern). The synthetic DGC was also observed by using a High-Resolution Transmission Electron Microscope (HRTEM, FEI Talos F200X-G2) at the accelerated voltage of 200 kV.

The nature of series [3]: In vitro stability of DGC fluorescence on storage in PBS. It counts as physicochemical. As to conditions: two weeks storage in PBS. From the text: In this manuscript, Lu et al. reported a novel gold cluster-based probe modified with peptides that specifically bind to connective tissue growth factor (CTGF). Owing to the elevated expression of CTGF is an upstream regulator of amyloid-beta (Aβ) plaque, the probe holds a promise for potential application in the early diagnosis of Alzheimer's disease (AD). The unique feature of this probe is their capacity to emit near-infrared (NIR) light, rendering them suitable for in vivo imaging. Moreover, their ability to […]
The article is well-crafted, and the experiments convincingly highlight the distinctive properties of the newly developed probe. […]
following concerns are addressed.
Reviewer 1: How long can the fluorescence last in the cells and AD brain, or how stable is the fluorescence of the probe?
Response: We monitored the fluorescence changes of DGC probes in vitro, in U87MG cells and in brain of APP/PS1 mice, respectively. […]
cultured U87MG cells, DGC probe could be well internalized, and obvious […]
medium for 72 h (Fig R5). In APP/PS1 mice, we detected temporal changes of luminescence from DGC in the brain by in vivo NIR-II imaging. […]
Figure R6. […] Monitoring fluorescence intensity of DGC in brain of WT mice and 3-month-old APP/PS1 mice for 24 h (left). […]

The next series has as its target T1, CTGF (Homo sapiens, UniProt P29279).
T1 sequence (P29279 27-349): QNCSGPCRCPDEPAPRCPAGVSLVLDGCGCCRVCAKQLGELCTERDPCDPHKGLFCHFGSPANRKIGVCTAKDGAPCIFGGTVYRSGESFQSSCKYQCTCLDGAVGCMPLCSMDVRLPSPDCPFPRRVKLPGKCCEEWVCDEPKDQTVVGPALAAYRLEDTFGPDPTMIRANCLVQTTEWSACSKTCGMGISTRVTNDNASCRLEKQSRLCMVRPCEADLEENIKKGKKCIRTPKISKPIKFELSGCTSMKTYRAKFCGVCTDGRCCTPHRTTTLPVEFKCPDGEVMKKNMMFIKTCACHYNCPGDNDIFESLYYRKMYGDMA
Kind of series: DAB chromogenic imaging of DGC-labelled human brain sections. As to conditions: 200 μM DGC 4 °C overnight + DAB. On the set-up: The brain tissue samples of autopsy-confirmed AD patients were obtained from the Chinese Brain Bank Center; from tissue; host or cells: postmortem human brain sections (hippocampus, cortex) of AD patients and healthy controls. As to the method:
The brain tissue samples of autopsy-confirmed AD patients were obtained from the Chinese Brain Bank Center (CBBC) and Human Brain Bank, Central South University Xiangya School of Medicine. First, the brain sections were air-dried for 15 min at room temperature, followed by immersion in water. 5% H2O2 was applied for 15 min at room temperature. The sections were washed three times with PBS for 5 min each time. Then, tissue repair was performed using trypsin at a temperature of 37 °C for 5 min and washed three times with PBS. We chose 10% sheep serum to block for a duration of 20 min at 37°. Primary antibodies (CTGF antibody and Aβ antibody) were added to the sections overnight at 4 °C. FITC-labeled Goat Anti-Rabbit IgG (H + L) (1: dilution 1:200, Bioss, Cat#bs-0370R-FITC) was applied and incubated at 37 °C for 20 min in darkness. Subsequent washing steps involved rinsing the sections three times with PBS, each time lasting for 5 min while avoiding exposure to light. DAPI staining was performed, taking care to store the samples away from light during the 5-min procedure. Then observed by the CLSM system. Then, we chose the optimal incubation concentration of DGC (200 μM) was used to determine the conditions using DAB Horseradish Peroxidase Color Development Kit. After the brain sections were co-stained by DGC (200 μM) at 4 °C overnight, a DAB chromogenic agent was added to the brain tissue sections to explore whether DGC can catalyze DAB solutions to produce insoluble brown precipitate to attach the brain tissue sections with an optical microscope. Finally, the brain tissue sections were digested with aqua regia to measure the Au content by the ICP-MS system.

This note sets out measurements from paper PMC11169542, “A probe for NIR-II imaging and multimodal analysis of early Alzheimer’s disease by targeting CTGF” (Nature Communications, 2024).

Entries after “also recorded” stand apart in the source; their conditions may differ. Ends that are not written are not given here.

Turning to “DGC: CTGF-targeting peptide-coated gold nanocluster: one Au26 gold nanocluster coated by eight DAG cyclic peptides, NIR-II and red fluorescence (CDAGRKQKC; also: cyclic peptide, ring not given here, eight peptides on one Au26 nanocluster via Cys Au-S bonds)”, the “stability in blood circulation” value in series [1] was “high stability during internal circulation”. Moreover, in series [2], the average hydrated size was ~ 2.85 nm. Besides, the “fluorescence intensity change on storage” value in series [3] was “decreased only slightly; also recorded: decreased only”. Further, the DAB chromogenic intensity in the series with CTGF (AD 1, Cortex section) was 0.04756; with CTGF (AD 1, Hippocampus section) it was 0.01899; with CTGF (AD 2, Cortex section), 0.04585; with CTGF (AD 2, Hippocampus section) it was 0.0257; in the series with CTGF (HC 1, Cortex section), 0.0065; with CTGF (HC 1, Hippocampus section), 0.00154. Also, the DAB chromogenic intensity with CTGF (HC 2, Cortex section) is on record as 0.008159; with CTGF (HC 2, Hippocampus section), 0.005.
